± gives the uncertainty stated by the source.
Experiment: protein stability index of a GFP-peptide fusion (yeast GPS) (PSI 1-4); higher = more stable; sorted into four equal gates, so the index is relative within each strain
Outline: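 Tiled yeast protein peptides of 17 residues were each joined downstream of GFP, on plasmids that also express Cherry. The pooled library was maintained in yeast, and mid-log cultures in leucine-free medium were sorted into four equal gates on the GFP/Cherry ratio. Plasmids from every gate were amplified by PCR and sequenced on Illumina, with barcodes linking reads to strains. The protein stability index of a peptide is its gate-number-weighted read frequency summed over the gates.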

Sequence | protein stability index (doa10∆) | protein stability index (pdr5∆) | protein stability index (san1∆) | protein stability index (ubr1∆)
TSSTHERKSKTYVITKN [RET1] | 2.44 ± 0.067 | 2.66 ± 0.08 | 2.3 ± 0.064 | 2.84 ± 0.076
PQDILSKLYLLLARVFE [SNF11] | 2.14 ± 0.044 | 2.37 ± 0.052 | 2.2 ± 0.069 | 2.4 ± 0.041
SKNSKLSIICVGGHNVT [SIR3] | 1.71 ± 0.069 | 1.57 ± 0.039 | 1.39 ± 0.081 | 1.52 ± 0.041
VSTSSGAAANNNDQKRQ [YJL041W/NSP1] | 3.37 ± 0.084 | 3.17 ± 0.073 | 3.27 ± 0.035 | 3.45 ± 0.069
IPGGPKFEPLYPREEEE [PRP8] | 3.01 ± 0.11 | 2.78 ± 0.15 | 3.01 ± 0.11 | 2.91 ± 0.13
HIKEASEEVDDLSMVPK [SNF2] | 3.27 ± 0.11 | 3.24 ± 0.25 | 3.13 ± 0.1 | 3.6 ± 0.16
IEPVTKVSSLKMFIQRI [YCS4] | 2.91 ± 0.064 | 2.9 ± 0.065 | 3.17 ± 0.048 | 3.31 ± 0.065
FLYVLIPAGIYWYWWKN [QCR8] | 1.93 ± 0.11 | 1.33 ± 0.13 | 1.62 ± 0.21 | 1.35 ± 0.27
GGTSDMNYLLDNKINEI [CSI1] | 2.85 ± 0.11 | 2.87 ± 0.087 | 3.17 ± 0.059 | 3.25 ± 0.078
LYQDMAARHRARFRSIH [RPL20A] | 2.81 ± 0.071 | 2.71 ± 0.048 | 2.96 ± 0.051 | 2.95 ± 0.07
NRLEKEQSVKTQNSRHY [LIN1] | 2.44 ± 0.13 | 2.85 ± 0.12 | 2.52 ± 0.13 | 2.49 ± 0.096
SKLKKETASFIPTKESL [YIL149C/MLP2] | 2.74 ± 0.072 | 3.15 ± 0.098 | 2.44 ± 0.15 | 2.57 ± 0.057
NTPLVGAAFKVISNLVP [YJL039C/NUP192] | 1.96 ± 0.081 | 2.08 ± 0.095 | 2.73 ± 0.16 | 2.47 ± 0.1
TLILIQNPENLLSEKIL [SIR3] | 2.98 ± 0.062 | 2.88 ± 0.07 | 2.87 ± 0.046 | 3.16 ± 0.06
SHINTNVGDNNSTASSS [ARP7] | 2.68 ± 0.095 | 3.02 ± 0.067 | 2.9 ± 0.062 | 2.84 ± 0.066
SVVSMSNDVLKPETPKG [SIR2] | 3.01 ± 0.073 | 3.51 ± 0.11 | 3.25 ± 0.062 | 2.96 ± 0.052
FRGNISQPKIGYGSNKK [RPL32] | 2.88 ± 0.094 | 2.88 ± 0.06 | 2.88 ± 0.067 | 2.89 ± 0.049
KNMFEKKASKVTVDADI [ISW2] | 2.44 ± 0.063 | 2.87 ± 0.059 | 2.83 ± 0.055 | 2.77 ± 0.054
KGDLRRGFIKSEGSGSS [RPC53] | 3.43 ± 0.14 | 3.37 ± 0.1 | 3.31 ± 0.07 | 3.48 ± 0.15
NYYYLFDKKSFFNGKAL [PRP8] | 2.55 ± 0.046 | 2.16 ± 0.043 | 2.91 ± 0.055 | 2.38 ± 0.037
KPVMEVTSSFFYRGNYT [FAS1] | 2.21 ± 0.065 | 2.11 ± 0.065 | 1.91 ± 0.12 | 2.1 ± 0.081
VPVRSFKGHSHIVQDCT [ASC1] | 2.5 ± 0.073 | 3.11 ± 0.064 | 2.91 ± 0.081 | 2.83 ± 0.049
AGLTRSDRSLSEDLFAD [BRR2] | 3.04 ± 0.26 | – | 3.56 ± 0.2 | –
SPTESYSDIGGLESQIQ [RPT2] | 3.3 ± 0.14 | 3.53 ± 0.14 | 3.41 ± 0.06 | 3.29 ± 0.076
KSHKQTIVTGGGSGNGD [RPP1] | 3.15 ± 0.27 | 3.55 ± 0.15 | – | 3.44 ± 0.2
ESVPIYSIDEFFLQRKL [BRR2] | 3.44 ± 0.13 | 3.21 ± 0.062 | 2.96 ± 0.12 | 3.33 ± 0.057
KTKLWGFKWLNKLDEYH [LIN1] | – | – | – | 3.22 ± 0.2

Sequence | protein stability index (doa10∆) | protein stability index (pdr5∆) | protein stability index (san1∆) | protein stability index (ubr1∆)
LYNFLHKYVLTLQLYMV [RGR1] | 2.04 ± 0.058 | 1.43 ± 0.042 | 1.78 ± 0.13 | 1.51 ± 0.039
RGHRIRREFKQYSLERN [PRP8] | 2.44 ± 0.17 | 2.61 ± 0.094 | 2.81 ± 0.23 | 1.97 ± 0.12
FDEKTIEEMLEIISGYA [RPC17] | 1.36 ± 0.082 | 2.69 ± 0.14 | 2.07 ± 0.14 | 1.75 ± 0.09
DPSGSYFPWKATAIGKG [PRE8] | 2.93 ± 0.1 | 2.68 ± 0.11 | 2.82 ± 0.077 | 3.13 ± 0.075
FRGIIRSQDVRSTDRDR [CSL4] | – | – | – | 2.9 ± 0.2
KLYDKTENDIKALQSIG [RPT4] | 2.65 ± 0.18 | 2.62 ± 0.2 | 1.87 ± 0.22 | 2.4 ± 0.22
NEAGRKLSDIFLSKPSK [SNF2] | 2.94 ± 0.08 | 3.27 ± 0.087 | 3.21 ± 0.081 | 3.04 ± 0.093
LRKSELEYYAMLSKTKV [RPL30] | 2.62 ± 0.075 | 3.01 ± 0.078 | 2.17 ± 0.07 | 2.82 ± 0.068
DKFSPEDGLGPLMAKSV [ARP7] | 3.02 ± 0.11 | 3.06 ± 0.11 | 2.66 ± 0.13 | 3.39 ± 0.097
YLMTYPQQPMVKTKTIE [RET1] | 1.81 ± 0.099 | 1.69 ± 0.15 | 1.61 ± 0.24 | 1.08 ± 0.065
DSETSDPNEVEIKKLLA [DIS3] | 2.9 ± 0.075 | 3.07 ± 0.069 | 2.82 ± 0.075 | 3.27 ± 0.094
LQQKQRDLILKKGEYAR [SMC3] | 2.3 ± 0.12 | 2.42 ± 0.14 | 2.5 ± 0.29 | 2.71 ± 0.072
LKSAIRDEIAKNTELSY [RPN12] | 1.41 ± 0.058 | 2.16 ± 0.1 | 1.51 ± 0.097 | 2.46 ± 0.056
NDSETHTEDESTKELKF [BRN1] | 3.2 ± 0.17 | 3.13 ± 0.13 | 3.17 ± 0.094 | 3.19 ± 0.068
FPMPYENEEFITFLQTL [ECM29] | 2.34 ± 0.058 | 2.53 ± 0.034 | 2.4 ± 0.047 | 2.39 ± 0.063
ANICLTFLESINGINWR [SIN4] | 2.54 ± 0.043 | 2.31 ± 0.046 | 2.46 ± 0.058 | 2.36 ± 0.042
NRAARDRRAQRVAEKRD [RPL19A] | 2.94 ± 0.12 | 2.69 ± 0.082 | 2.85 ± 0.089 | 3.19 ± 0.06
TIVGVKFNNGVVIAADT [PUP1] | 1.43 ± 0.072 | 2.55 ± 0.14 | – | 2.55 ± 0.17
LRRVNARYVIATSTKVS [RPL6A] | 1.45 ± 0.058 | 1.34 ± 0.047 | 1.25 ± 0.095 | 1.14 ± 0.035
ISKQKSKLDYIFKDKEK [SMC1] | 2.78 ± 0.14 | 2.71 ± 0.12 | 2.89 ± 0.15 | 3.29 ± 0.091
AELLNEWHSSLTLKEAE [PUP2] | – | 2.93 ± 0.14 | – | 3.02 ± 0.17
ATNRVDVLDPALLRSGR [RPT5] | 3.13 ± 0.12 | 2.84 ± 0.11 | 3.04 ± 0.085 | 2.94 ± 0.075
LGYTHIAINFTVNHSEK [RPP1] | 1.35 ± 0.038 | 1.25 ± 0.036 | 1.56 ± 0.062 | 1.41 ± 0.042
ISQVSSIHAIGSIKEDY [RPB7] | 2.27 ± 0.077 | 2.65 ± 0.067 | 2.32 ± 0.084 | 2.79 ± 0.1
TEFEFYLLEELESYLIV [SSN8] | 2.63 ± 0.099 | 2.72 ± 0.087 | 3.21 ± 0.12 | 2.72 ± 0.064
YGPPGTGKTLLAKAVAA [RPT4] | 2.17 ± 0.069 | 2.23 ± 0.06 | 1.98 ± 0.089 | 1.93 ± 0.05
LQDELKELQLEKESVEK [SMC3] | 3.66 ± 0.13 | 3.25 ± 0.21 | 2.7 ± 0.26 | –
